These results are taken from article PMC5468090.

What all share (experiment): SPR
Background: In SPR one partner is held on a chip, and binding of the other changes the refractive index at the surface.

One series has as its system XRCC4-Ala;XLF-Ala. As to conditions: 1 uM each; described as similar to WT-WT; EMSA: 10 mM HEPES pH 8, 75 mM KCl, 0.5 mM EDTA, 0.5 mM DTT, 5% glycerol, RT 30 min, 200 ng DNA/10 ul; SPR: 20 mM HEPES pH 8, 75 mM KCl, 10% glycerol, 1 mM DTT …. For orientation: In EMSA bound probe runs differently from free probe, usually more slowly.
The next series relates to XRCC4-WT;XLF-WT. To be noted: 1 uM each; EMSA: 10 mM HEPES pH 8, 75 mM KCl, 0.5 mM EDTA, 0.5 mM DTT, 5% glycerol, RT 30 min, 200 ng DNA/10 ul; SPR: 20 mM HEPES pH 8, 75 mM KCl, 10% glycerol, 1 mM DTT ….
Another series concerns XRCC4-Ala;XLF-WT. As to conditions: 1 uM each; described as similar to WT-WT; EMSA: 10 mM HEPES pH 8, 75 mM KCl, 0.5 mM EDTA, 0.5 mM DTT, 5% glycerol, RT 30 min, 200 ng DNA/10 ul; SPR: 20 mM HEPES pH 8, 75 mM KCl, 10% glycerol, 1 mM DTT ….
For another series, the system named is XRCC4-Asp;XLF-Asp. To be noted: 1 uM each; koff_fast 4-fold faster than WT-WT; EMSA: 10 mM HEPES pH 8, 75 mM KCl, 0.5 mM EDTA, 0.5 mM DTT, 5% glycerol, RT 30 min, 200 ng DNA/10 ul; SPR: 20 mM HEPES pH 8, 75 mM KCl, 10% glycerol, 1 mM DTT ….
The next series deals with XRCC4-WT;XLF-Ala. To be noted: 1 uM each; described as similar to WT-WT; EMSA: 10 mM HEPES pH 8, 75 mM KCl, 0.5 mM EDTA, 0.5 mM DTT, 5% glycerol, RT 30 min, 200 ng DNA/10 ul; SPR: 20 mM HEPES pH 8, 75 mM KCl, 10% glycerol, 1 mM DTT ….

For 400 bp SPR DNA, the binding signal (fold equilibrium affinity vs WT-WT) stood at 1 in the series on XRCC4-Ala;XLF-Ala, 1 in the series on XRCC4-Ala;XLF-WT, 0.25 in the series with XRCC4-Asp;XLF-Asp and 1 in the series on XRCC4-WT;XLF-Ala. This substance also yielded a binding signal (fold equilibrium affinity (reference)) with XRCC4-WT;XLF-WT of 1.
